Values quoted from earlier work in patent publication US20200069786A1, “COMPOSITION AND PROCESS FOR PREPARING VACCINE” (TREOS BIO ZRT., priority 2018, published 2020).
Like-named read-outs stand apart in the source and are kept apart here.

B1: ADAM29 (protein, UniProt Q9UKF5 194-820, looked up)
Disintegrin and …: WIHFRIVEIVVVIDNYLYIRYERNDSKLLEDLYVIVNIVDSILDVIGVKVLLFGLEIWTNKNLIVVDDVRKSVHLYCKWKSENITPRMQHDTSHLFTTLGLRGLSGIGAFRGMCTPHRSCAIVTFMNKTLGTFSIAVAHHLGHNLGMNHDEDTCRCSQPRCIMHEGNPPITKFSNCSYGDFWEYTVERTKCLLETVHTKDIFNVKRCGNGVVEEGEECDCGPLKHCAKDPCCLSNCTLTDGSTCAFGLCCKDCKFLPSGKVCRKEVNECDLPEWCNGTSHKCPDDFYVEDGIPCKERGYCYEKSCHDRNEQCRRIFGAGANTASETCYKELNTLGDRVGHCGIKNATYIKCNISDVQCGRIQCENVTEIPNMSDHTTVHWARFNDIMCWSTDYHLGMKGPDIGEVKDGTECGIDHICIHRHCVHITILNSNCSPAFCNKRGICNNKHHCHCNYLWDPPNCLIKGYGGSVDSGPPPKRKKKKKFCYLCILLLIVLFILLCCLYRLCKKSKPIKKQQDVQTPSAKEEEKIQRRPHELPPQSQPWVMPSQSQPPVTPSQSHPQVMPSQSQPPVTPSQSQPRVMPSQSQPPVMPSQSHPQLTPSQSQPPVTPSQRQPQLMPSQSQPPVTPS
B2: MAGE-B3 (protein, UniProt O15480 1-346, looked up)
Melanoma-associated antigen B3: MPRGQKSTLHAREKRQQTRGQTQDHQGAQITATNKKKVSFSSPLILGATIQKKSAGRSRSALKKPQRALSTTTSVDVSYKKSYKGANSKIEKKQSFSQGLSSTVQSRTDPLIMKTNMLVQFLMEMYKMKKPIMKADMLKIVQKSHKNCFPEILKKASFNMEVVFGVDLKKVDSTKDSYVLVSKMDLPNNGTVTRGRGFPKTGLLLNLLGVIFMKGNCATEEKIWEFLNKMRIYDGKKHFIFGEPRKLITQDLVKLKYLEYRQVPNSNPARYEFLWGPRAHAETSKMKVLEFWAKVNKTVPSAFQFWYEEALRDEEERVQAAAMLNDGSSAMGRKCSKAKASSSSHA
B3: CTNNA2 (protein, UniProt P26232 1-953, looked up)
Catenin alpha-2: MTSATSPIILKWDPKSLEIRTLTVERLLEPLVTQVTTLVNTSNKGPSGKKKGRSKKAHVLAASVEQATQNFLEKGEQIAKESQDLKEELVAAVEDVRKQGETMRIASSEFADDPCSSVKRGTMVRAARALLSAVTRLLILADMADVMRLLSHLKIVEEALEAVKNATNEQDLANRFKEFGKEMVKLNYVAARRQQELKDPHCRDEMAAARGALKKNATMLYTASQAFLRHPDVAATRANRDYVFKQVQEAIAGISNAAQATSPTDEAKGHTGIGELAAALNEFDNKIILDPMTFSEARFRPSLEERLESIISGAALMADSSCTRDDRRERIVAECNAVRQALQDLLSEYMNNTGRKEKGDPLNIAIDKMTKKTRDLRRQLRKAVMDHISDSFLETNVPLLVLIEAAKSGNEKEVKEYAQVFREHANKLVEVANLACSISNNEEGVKLVRMAATQIDSLCPQVINAALTLAARPQSKVAQDNMDVFKDQWEKQVRVLTEAVDDITSVDDFLSVSENHILEDVNKCVIALQEGDVDTLDRTAGAIRGRAARVIHIINAEMENYEAGVYTEKVLEATKLLSETVMPRFAEQVEVAIEALSANVPQPFEENEFIDASRLVYDGVRDIRKAVLMIRTPEELEDDSDFEQEDYDVRSRTSVQTEDDQLIAGQSARAIMAQLPQEEKAKIAEQVEIFHQEKSKLDAEVAKWDDSGNDIIVLAKQMCMIMMEMTDFTRGKGPLKNTSDVINAAKKIAEAGSRMDKLARAVADQCPDSACKQDLLAYLQRIALYCHQLNICSKVKAEVQNLGGELIVSGTGVQSTFTTFYEVDCDVIDGGRASQLSTHLPTCAEGAPIGSGSSDSSMLDSATSLIQAAKNLMNAVVLTVKASYVASTKYQKVYGTAAVNSPVVSWKMKAPEKKPLVKREKPEEFQTRVRRGSQKKHISPVQALSEFKAMDSF
B4: HORMAD2 (protein, UniProt Q8N7B1 1-307, looked up)
HORMA domain-containing …: MATAQLSHCITIHKASKETVFPSQITNEHESLKMVKKLFATSISCITYLRGLFPESSYGERHLDDLSLKILREDKKCPGSLHIIRWIQGCFDALEKRYLRMAVLTLYTDPMGSEKVTEMYQFKFKYTKEGATMDFDSHSSSTSFESGTNNEDIKKASVLLIRKLYILMQDLEPLPNNVVLTMKLHYYNAVTPHDYQPLGFKEGVNSHFLLFDKEPINVQVGFVSTGFHSMKVKVMTEATKVIDLENNLFRENSTTEIAHQGLDCDEEEECNDHIQRMNFVCSQQSSECSRKKRKVSEPVKVFIPNRK
B5: FAM133A (protein, UniProt Q8N9E0 1-248, looked up)
Protein FAM133A: MGKRDNRVAYMNPIAMARWRGPTQSVGPTIQDYLNRPRPTWEEVKKQLENKKTGSKALAEFEEKMNENWKKELEKSREKLLSGNESSSKKRERKKKRKKKSCRSSSSSSSSDSSSSSSDSEDEEKKQGKRRKKKKNRSYKSSQSSTHESESESKESVKKKKKSKDETEKEKDVRSLSKKRKKSYPDDKPLSSESSSESDYEEDVQAKKKRRCEEREQAKEKVKKKKKKQHKKHSKKKKKKSGSSHKSR
B6: CTAGE1 (protein, UniProt Q96RT6 1-745, looked up)
cTAGE family member 2: MRPDSHPYGFPWELVIRAAVAGFFAVLFLWRSFRSVTSRLYVRREKKFAVALSGLIEEKCKLLEKFSLVQKEYEGYEVESSLKNASFEKEATEAQSLEATCEKLNRFNSELVHEILCLEKELKEEKSKHSEQNELMADISKRIQSLEDESKSLKSQVAEAKMTFKRFQANEERLEIEIQDAWKENSELQESQKQLLQEAEVWKEQVSELIKQKRTFEDSKVHAEQVLNDKENHIKTLTERLLKMKDGVAMLEEDVTDDDNLELEMNSESEDGAYLDNPPKGALKKLIHAAKLNASLKTLEGERNQIYIQLSEVDKTKEELTEHIKNLQTEQASLQSENTHFESENQKLQQKLKVMTELYQENEMKLYRKLIVEEKCRLEKEEKLSKVDEMISHATEELETYRKRAKDLKEFEKTIHFYQKKIILHEKKAHDNWSAAWTAERNLNDLRKENAHNRQKLTEIEFKIKLLEKDPYGLDVPNTAFGRQHSPYGPSPLGWPSSETRASLYPPTLLEGPLRLSPLLPRGGGRGSRGPGNPPDHQITKERGESSCDRLTDPHRAPSDAGPLAPPWEQDYRMMFPPPGQSYPDSALPPQRQDRFYSNCARLSGPAELRSFNMPSLDKMDGSMPSEMESSRNDTKDNLGNLKVPDSSLPAENEATGPGFVPPPLAPIRGLLFPVDTRGPFIRRGPPFPPPPPGTVFGASPDYFSPRDVPGPPRAPFAMRNVYLPRGFLPYRPPRPAFFPPAPTF
B7: LIPI (protein, UniProt Q6XZB0 16-460, looked up)
Lipase member I: DNKRPCLEFSQLSVKDSFRDLFIPRIETILMMYTRNNLNCAEPLFEQNNSLNVNFNTQKKTVWLIHGYRPVGSIPLWLQNFVRILLNEEDMNVIVVDWSRGATTFIYNRAVKNTRKVAVSLSVHIKNLLKHGASLDNFHFIGVSLGAHISGFVGKIFHGQLGRITGLDPAGPRFSRKPPYSRLDYTDAKFVDVIHSDSNGLGIQEPLGHIDFYPNGGNKQPGCPKSIFSGIQFIKCNHQRAVHLFMASLETNCNFISFPCRSYKDYKTSLCVDCDCFKEKSCPRLGYQAKLFKGVLKERMEGRPLRTTVFLDTSGTYPFCTYYFVLSIIVPDKTMMDGSFSFKLLNQLGMIEEPRLYEKNKPFYKLQEVKILAQFYNDFVNISSIGLTYFQSSNLQCSTCTYKIQSLMLKSLTYPERPPLCRYNIVLKDREEVFLNPNTCTPKNT
B8: PIWIL3 (protein, UniProt Q7Z3Z3 1-882, looked up)
Piwi-like protein 3: MPGRARTRARGRARRRESYQQEAPGGPRAPGSATTQEPPQLQSTPRPLQEEVPVVRPLQPRAARGGAGGGAQSQGVKEPGPEAGLHTAPLQERRIGGVFQDLVVNTRQDMKHVKDSKTGSEGTVVQLLANHFRVISRPQWVAYKYNVDYKPDIEDGNLRTILLDQHRRKFGERHIFDGNSLLLSRPLKERRVEWLSTTKDKNIVKITVEFSKELTPTSPDCLRYYNILFRRTFKLLDFEQVGRNYYTKKKAIQLYRHGTSLEIWLGYVTSVLQYENSITLCADVSHKLLRIETAYDFIKRTSAQAQTGNIREEVTNKLIGSIVLTKYNNKTYRVDDIDWKQNPEDTFNKSDGSKITYIDYYRQQHKEIVTVKKQPLLVSQGRWKKGLTGTQREPILLIPQLCHMTGLTDEICKDYSIVKELAKHTRLSPRRRHHTLKEFINTLQDNKKVRELLQLWDLKFDTNFLSVPGRVLKNANIVQGRRMVKANSQGDWSREIRELPLLNAMPLHSWLILYSRSSHREAMSLKGHLQSVTAPMGITMKPAEMIEVDGDANSYIDTLRKYTRPTLQMGMSCLLVFKVICILPNDDKRRYDSIKRYLCTKCPIPSQCVVKKTLEKVQARTIVTKIAQQMNCKMGGALWKVETDVQRTMFVGIDCFHDIVNRQKSIAGFVASTNAELTKWYSQCVIQKTGEELVKELEICLKAALDVWCKNESSMPHSVIVYRDGVGDGQLQALLDHEAKKMSTYLKTISPNNFTLAFIVVKKRINTRFFLKHGSNFQNPPPGTVIDVELTRNEWYDFFIVSQSVQDGTVTPTHYNVIYDTIGLSPDTVQRLTYCLCHMYYNLPGIIRVPAPCHYAHKLAYLVGQSIHQEPNRSLSTRLFYL

System: TSA
[1] = TSA expression rate in LUNG cancer
[2] = TSA expression rate in LEUKEMIAS

Molecule	Expression Rate (ER) % [1]	Expression Rate (ER) % [2]	Expression Rate (ER) % (TSA expression rate in CRC)	also measured
B1	7%			
B2	0%			
B3		45%		
B4	5%			
B5		83%		
B6		72%	19%	Expression Rate (ER) % (TSA expression rate in BLADDER cancer): 53%
B7	0%	6%	0%	Expression Rate (ER) % (TSA expression rate in HEAD and NECK): 0%; Expression Rate (ER) % (TSA expression rate in Kidney): 25%; Expression Rate (ER) % (TSA expression rate in MELANOMA): 0%
B8	7%		96%	TSA Expression Rate (ER) (OVARIAN): 88%
